This is an account of results in patent US20210040201A1.

As usually defined, the IC50 is the point on the concentration scale where inhibition reaches its midpoint. As a reminder, the EC50 is the concentration at which the effect is half-maximal.

For experiment [1], the target named is Human TIGIT expressed on the surface of cells (human) (UniProt Q495A1). The experiment is described as follows: flow cytometry competition with 50 nM human CD155-mouse IgG2a Fc on CHOS cells overexpressing human TIGIT; fit value of the flat negative-control curve; the row of the drawn table is headed EC50, the text calls the values IC50.
Chain of Human TIGIT expressed on the surface of cells (human) (Q495A1 22-244 limits assumed): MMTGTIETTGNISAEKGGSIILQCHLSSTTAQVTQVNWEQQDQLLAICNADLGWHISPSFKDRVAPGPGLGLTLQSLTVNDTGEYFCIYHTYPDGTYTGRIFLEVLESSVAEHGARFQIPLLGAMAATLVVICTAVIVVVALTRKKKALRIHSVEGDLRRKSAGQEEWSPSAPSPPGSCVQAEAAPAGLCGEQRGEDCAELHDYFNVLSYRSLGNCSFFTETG
For experiment [2] the target is unchanged. In words: flow cytometry, antibody titrated on CHO cells expressing human TIGIT, median fluorescence intensity; fit value of the flat negative-control curve in the table under the graph. On the technique in general: A flow cytometer gives signals particle by particle.
Experiment [3] shares this target. The experiment is described as follows: flow cytometry competition against 50 nM human CD155-mouse IgG2a Fc on CHOS cells expressing human TIGIT; negative control (text says IgG4).
The target is the same in experiment [4]. In words: flow cytometry competition against 50 nM human CD155-mouse IgG2a Fc on CHOS cells expressing human TIGIT; negative control.
Experiment [5] has the same target. In words: cell-based or functional assay.

IgG4 (antibody) returned an IC50 in experiment [1] of 1.15 nM. This substance also yielded an EC50 in experiment [2] of 53200 nM.
Turning to IgG1 (negative control) (antibody), the IC50 in experiment [3] was 1.15 nM; in experiment [4], 0.039 nM. In addition, in experiment [5], the EC50, MOA-based assay (luciferase reporter under IL2 promoter) was 273 nM.
